Reference: patent US20230285581A1

Experiments:
[1] = target: endogenously expressed human MSR1 on PMA-treated THP-1 cells (human) (UniProt P21757); test: ECL cell binding, PMA-treated THP-1 cells
[2] = target: human MSR1 extracellular domain expressed with a N-terminal nonahistidine tag (His9-hMSR1; R&D Systems, Cat #2708-MS) (human) (UniProt P21757); test: competition ELISA; 500 nM antibody, competitor 5 nM Ox-LDL, plate-coated His9-hMSR1
[3] = target: full length human MSR1 with a C-terminal Myc tag on HEK293.Myc.hMSR1 cells (human) (UniProt P21757); test: ECL cell binding, HEK293.Myc.hMSR1 cells
[4] = target: human MSR1 extracellular domain expressed with a N-terminal nonahistidine tag (His9-hMSR1; R&D Systems, Cat #2708-MS) (human) (UniProt P21757); test: competition ELISA; 300 nM antibody, competitor biot-AGE-BSA, plate-coated His9-hMSR1
[5] = target: human MSR1 extracellular domain expressed with a N-terminal nonahistidine tag (His9-hMSR1; R&D Systems, Cat #2708-MS) (human) (UniProt P21757); test: competition ELISA; 100 nM antibody, competitor Ac-LDL, plate-coated His9-hMSR1

Chain of human MSR1 extracellular domain expressed with a N-terminal nonahistidine tag (His9-hMSR1; R&D Systems, Cat #2708-MS) (human) (P21757 other isoform, or with tags, fused parts or gaps): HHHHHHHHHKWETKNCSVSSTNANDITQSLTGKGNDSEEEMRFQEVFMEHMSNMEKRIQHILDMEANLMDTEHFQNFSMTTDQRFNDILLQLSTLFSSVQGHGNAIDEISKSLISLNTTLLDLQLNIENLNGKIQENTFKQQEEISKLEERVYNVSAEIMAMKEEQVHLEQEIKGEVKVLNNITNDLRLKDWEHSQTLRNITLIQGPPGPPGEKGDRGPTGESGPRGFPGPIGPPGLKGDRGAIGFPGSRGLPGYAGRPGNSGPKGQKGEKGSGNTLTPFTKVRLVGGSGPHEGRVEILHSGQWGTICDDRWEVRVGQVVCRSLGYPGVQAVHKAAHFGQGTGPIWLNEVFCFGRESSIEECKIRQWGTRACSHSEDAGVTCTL
Chain of full length human MSR1 with a C-terminal Myc tag on HEK293.Myc.hMSR1 cells (human) (P21757 whole entry, the tested form may be a part): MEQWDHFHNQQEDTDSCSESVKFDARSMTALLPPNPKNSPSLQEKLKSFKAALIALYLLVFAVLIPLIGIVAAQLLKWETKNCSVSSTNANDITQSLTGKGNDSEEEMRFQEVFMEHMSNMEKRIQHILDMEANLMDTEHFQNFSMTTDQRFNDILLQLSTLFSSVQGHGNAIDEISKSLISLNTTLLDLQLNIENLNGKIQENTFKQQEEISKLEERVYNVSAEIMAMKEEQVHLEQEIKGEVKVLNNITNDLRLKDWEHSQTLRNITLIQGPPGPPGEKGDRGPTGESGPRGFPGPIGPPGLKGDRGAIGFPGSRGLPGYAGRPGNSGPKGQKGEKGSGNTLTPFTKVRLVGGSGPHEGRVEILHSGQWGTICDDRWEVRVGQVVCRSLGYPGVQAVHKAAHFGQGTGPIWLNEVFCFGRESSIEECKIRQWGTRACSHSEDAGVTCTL
Chain of endogenously expressed human MSR1 on PMA-treated THP-1 cells (human) (P21757 whole entry, the tested form may be a part): as above

ratio of 11 nM antibody binding signal (RLU) to isotype control [1]: 56
% Blocking [2]: 38%
ratio of 11 nM antibody binding signal (RLU) to isotype control [3]: 78
% Blocking [4]: 3%
% Blocking [5]: -11%
B1: H2aM21229N (antibody, mouse IgG2a, V domains shown)
VH: EVQLVESGGGLVKPGGSLRLSCAASGFTFSRYSMNWVRQAPGKGLEWVSSISSSSSYIYYGDTVKGRFTISRDNAKKSLYLQMNSLRAEDTAVYYCVRDRGQLVLYFDYWGQGTLVTVSS
VL: DIQMTQSPASLSTSIRDRVTITCRASLSISSFLNWFQQRPGKAPKLLIYVASNLQSGVPSRFSDSGSGTDFTLTISSLQPEDFATYYCQQNYSTPPITFGQGTRLEIK
